Results on one substance are retold here after publication PMC4258114.

The data set concerns SaiR-His6 (Bacillus anthracis str. Sterne 7702). Put plainly: restriction enzyme.

“spxA2 SaiR site 1 wild-type (oMN14-666/oMN14-667)” came in with a K half of 6 nM.
